1 molecule from US20240409960A1, “METHOD FOR CONTROLLING PROTEIN FUNCTION” (The University of Tokyo, priority 2021, published 2024) can be followed below.

In this assay the test system is rox sites (Floxed (rox)-STOP Fluc reporter) in HEK293 cells. The assay can be described thus: luciferase assay of Dre-rox DNA recombination in HEK293 cells. It counts as cell-based, human. Conditions: 5 ng plasmid, TMP 10 nM or 500 nM or DMSO, 24 or 48 hours. The procedure:
For constructing the luciferase reporters detecting for the activities of Flp-FRT recombinase, VCre-Vlox recombinase and Dre-rox recombinase, the FRT site ([…]: SEQ ID No: 37), the Vlox site ([…]: SEQ ID No: 38), the rox site ([…]: SEQ ID No: 39), were inserted into HindIII and KpnI sites and ClaI and EcoRI sites in the pcDNA3.1 (+) vector of the luciferase reporter (of loxP-stop-loxP-Fluc).
For luciferase assay, HEK 293 cells were plated at 25,000 cells per well on a 96-well flat white microplate (Thermo Fisher Scientific), and were then cultured for 24 hours at 37° C. in 5% CO2. The cells were transfected with cDNAs encoding destabilized Cre along with the luciferase reporter (loxP-stop-loxP Fluc), using X-tremeGENE9 reagent (Merck Millipore) at 37° C. The total amount of DNA was 50 ng per well. Twenty-four hours after the transfection, TMP or DMSO was added into the cells, and the cells were further cultured for 24 hours or 48 hours. Just before the luciferase assay, the medium was replaced with Hanks' balanced salt solution (HBSS) (Thermo Fisher Scientific) containing 0.2 mM D-luciferin potassium salt. Bioluminescence measurement was performed for 1 second per well at room temperature using a Centro XS^3 LB 960 plate-reading luminometer (Berthold Technologies).

B1: SPEED-Dre: split Dre (a.a. 2-150 and 151-342), single DD on the N-terminal and C-terminal sides; SEQ ID No: 24 (protein)
chain: MVSKYPYDVPDYARSGGSGGMISLIAALAVDYVIGMENAMPWNLPADLAWFKRNTLNKPVIMGRHTWESIGRPLPGRKNIILSSQPSTDDRVTWVKSVDEAIAACGDVPEIMVIGGGRVIEQFLPKAQKLYLTHIDAEVEGDTHFPDYEPDDWESVFSEFHDADAQNSHSYCFEILERRGGSGGSGGKLVPKKKRKVGGSELIISGSSGGFLRNIGKEYQEAAENFMRFMNDQGAYAPNTLRDLRLVFHSWARWCHARQLAWFPISPEMAREYFLQLHDADLASTTIDKHYAMLNMLLSHCGLPPLSDDKSVSLAMRRIRREAATEKGERTGQAIPLRWDDLKLLDVLLGSGSGATNFSLLKQAGDVEENPGPLESRSERLVDLRNRAFLFVAYNTLMRMSEISRIRVGDLDQTGDTVTLHISHTKTITTAAGLDKVLSRRTTAVLNDWLDVSGLREHPDAVLFPPIHRSNKARITTTPLTAPAMEKIFSDAWVLLNKRDATPNKGRYRTWTGHSARVGAAIDMAEKQVSMVEIMQEGTWKKPETLMRYLRRGGVSVGANSRLMDSGGSGGSGGMISLIAALAVDYVIGMENAMPWNLPADLAWFKRNTLNKPVIMGRHTWESIGRPLPGRKNIILSSQPSTDDRVTWVKSVDEAIAACGDVPEIMVIGGGRVIEQFLPKAQKLYLTHIDAEVEGDTHFPDYEPDDWESVFSEFHDADAQNSHSYCFEILERR
modifications: MISC_FEATURE - HAtag; DOMAIN 21..179 Degradation Domain; SIGNAL 190..197 Nuclear Localization Signal; MISC_FEATURE - N-terminal side of Dre; MISC_FEATURE - P2A; MISC_FEATURE - C-terminal side of Dre; DOMAIN 575..733 Degradation Domain; Bacteriophage D6
For B1, the “background and TMP-dependent DNA recombination activity” value is listed as “results similar to those of SPEED-Cre”.
